# Measured values taken from patent publication US20240287150A1 (Harvard, published 2024).
# Target: T1, EPO receptor (EPOR) on TF-1 cells (human, UniProt P19235 25-508)
# T1 sequence (looked up): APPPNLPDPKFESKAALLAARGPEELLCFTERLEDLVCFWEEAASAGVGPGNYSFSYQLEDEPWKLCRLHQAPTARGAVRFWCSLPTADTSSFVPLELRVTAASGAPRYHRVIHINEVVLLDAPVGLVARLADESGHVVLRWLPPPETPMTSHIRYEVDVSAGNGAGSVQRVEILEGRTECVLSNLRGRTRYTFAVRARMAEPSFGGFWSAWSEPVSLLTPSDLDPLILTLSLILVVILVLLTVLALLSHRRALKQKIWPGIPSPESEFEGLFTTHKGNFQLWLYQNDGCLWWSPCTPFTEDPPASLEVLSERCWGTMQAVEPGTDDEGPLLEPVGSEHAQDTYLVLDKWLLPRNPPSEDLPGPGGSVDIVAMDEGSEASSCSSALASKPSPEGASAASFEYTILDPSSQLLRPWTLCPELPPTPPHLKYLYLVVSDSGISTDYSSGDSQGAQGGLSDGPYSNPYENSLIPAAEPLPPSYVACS
# Experiment: cell-based or functional assay
substance,measurement,value
"Darbepoetin (Aranesp), hyperglycosylated EPO (ligand)","EC50 relative to epoetin alfa, TF-1 cell proliferation",14.2 fold
